Test results from paper PMC6378725 (BMC Biotechnology, 2019).

How the values were obtained:
[1] = target: T1, HLA-A2 on stably transfected B721.221 cells (Homo sapiens, HLA-A*02:01, strain); test: flow cytometry on cells; 150,000 BLCL cells with various concentrations of purified mAbs in PBS 0.5% BSA, 30 min at room temperature; PE goat anti-human IgG; settings: one partner purified
T1 construct: beta-2-microglobulin of the cells; also called 721.221(A2); B721.221 A2; source: B721.221 cells, stably transfected, on the cell surface; copies: + +

[2] = target: T2, HLA-A*02:01 on BLCL HEN cells (Homo sapiens, HLA-A*02:01, strain); test: as above; settings: one partner purified
T2 construct: HLA-A*02:01 naturally expressed on BLCL HEN; beta-2-microglobulin of the cells; also called BLCL HEN expressing HLA-A2; source: endogenous, on BLCL HEN cells (HLA-A*02:01/ HLA-A*0101); copies: + +

[3] = target: T3, HLA-A*02:01 on a single antigen bead (Homo sapiens, HLA-A*02:01, strain); test: single antigen flow bead assay (Luminex); LabScreen single-antigen LS1A04 beads with 97 MHC class I alleles, Luminex 100 analyser; positivity threshold MFI 1000; settings: both partners purified
T3 construct: beta-2-microglobulin; source: bought: One Lambda (LabScreen single-antigen LS1A04); copies: + +

Measured: binding result

B1: C4.4 (antibody, V domains shown)
VH: EVQLVESGAEVKKPGESLKISCKASGYRFTNYWIGWVRQMPGKGLEWMGIIYPYHSDTQYTPSFQGQVTISADESTTTAYLHLSSLKASDTAIYYCVRLRGDFVPVVFAPYFDSWGQGTLVT
VL: QSALTQPRSVSGSPGQSVTISCTGSRSDAHTFNYVSWYQQHPGKAPKLMICDVNQRPSGVPDRFSGSKSGDAASLTISGLQAEDEADYYCFSYDANYTLGVFGTGTKVTVL
notes: numbers count on: the heavy chain from the first amino acid of its leader peptide; human heavy chain constant domains of the IgG-AbVec expression vector; human lambda light chain constant domain of the Iglambda-AbVec expression vector; Only the heavy chain was mutated; also called cluster D74H//S80 T//W102 L//M112I//G121D//R124P
binds: [1] | [2] | [3]

B2: C4.18 (antibody, V domains shown)
VH: EVQLVESGAEVKKPGESLKISCKASGYRFTNYWIGWVRQMPGKGLEWMGIIYPYHSDTQYSPSFQGQVTISADESTTTAYLHLSSLKASDTAIYYCVRLRGDFVPVVFAPYFDSWGQGTLVT
VL: QSALTQPRSVSGSPGQSVTISCTGSRSDAHTFNYVSWYQQHPGKAPKLMICDVNQRPSGVPDRFSGSKSGDAASLTISGLQAEDEADYYCFSYDANYTLGVFGTGTKVTVL
notes: numbers count on: the heavy chain from the first amino acid of its leader peptide; human heavy chain constant domains of the IgG-AbVec expression vector; human lambda light chain constant domain of the Iglambda-AbVec expression vector; Only the heavy chain was mutated; also called cluster D74H//W102 L//M112I//G121D//R124P
binds: [1] | [2] | [3]
